Laboratory results published in patent publication US20260250371A1 (ULTRAGENYX PHARMACEUTICAL, published 2026).
Where “and” joins values, the source holds several entries; their conditions need not be identical. Equal values may be shown once.

B1: UGX117 (antibody, human IgG1, kappa, V domains shown)
VH: QVQLVQSGAEVKKPGASVKVSCKASGYTFTNHYMHWVRQAPGQGLEWMGIINPISGSTSNAQKFQGRVTMTRDTSTSTVYMELSSLRSEDTAVYYCARDIVDAFDFWGQGTMVTVSS
VL: AIQLTQSPSSLSASVGDRVTITCRASQGISSALIWYQQKPGKAPKLLIYDASSLESGVPSRFSGSGSGTDFTLTISSLQPEDFATYYCQQFNDYFTFGPGTKVDIKR
notes: also called LC:V34I
B2: UGX152 (antibody, human IgG1, kappa, V domains shown)
VH: QVQLVQSGAEVKKPGASVKVSCKASGYTFTQHYMHWVRQAPGQGLEWMGIINPISGSTSNAQKFQGRVTMTRDTSTSTVYMELSSLRSEDTAVYYCARDIVDAFDFWGQGTMVTVSS
VL: AIQLTQSPSSLSASVGDRVTITCRASQGISSALVWYQQKPGKAPKLLIYDASSLESGVPSRFSGSGSGTDFTLTISSLQPEDFATYYCQQFNDYFTFGPGTKVDIKR
notes: also called HC:N31Q
B3: UGX162 (antibody, human IgG1, kappa, V domains shown)
VH: QVQLVQSGAEVKKPGASVKVSCKASGYTFTNHYMHWVRQAPGQGLEWMGIINPISGSTLNAQKFQGRVTMTRDTSTSTVYMELSSLRSEDTAVYYCARDIVDAFDFWGQGTMVTVSS
VL: AIQLTQSPSSLSASVGDRVTITCRASQGISSALVWYQQKPGKAPKLLIYDASSLESGVPSRFSGSGSGTDFTLTISSLQPEDFATYYCQQFNDYFTFGPGTKVDIKR
notes: also called HC:S59L
B4: UGX153 (antibody, human IgG1, kappa, V domains shown)
VH: QVQLVQSGAEVKKPGASVKVSCKASGYTFTRHYMHWVRQAPGQGLEWMGIINPISGSTSNAQKFQGRVTMTRDTSTSTVYMELSSLRSEDTAVYYCARDIVDAFDFWGQGTMVTVSS
VL: AIQLTQSPSSLSASVGDRVTITCRASQGISSALVWYQQKPGKAPKLLIYDASSLESGVPSRFSGSGSGTDFTLTISSLQPEDFATYYCQQFNDYFTFGPGTKVDIKR
notes: also called HC:N31R
B5: UGX146 (antibody, human IgG1, kappa, V domains shown)
VH: QVQLVQSGAEVKKPGASVKVSCKASGYTFTNHYMHWVRQAPGQGLEWMGIINPISGSTSNAQKFQGRVTMTRDTSTSTVYMELSSLRSEDTAVYYCARDIVDAFDFWGQGTMVTVSS
VL: AIQLTQSPSSLSASVGDRVTITCRASQGISSALVWYQQKPGKAPKLLIYDASSLESGVPSRFSGSGSGTDFTLTISSLQPEDFATYYCQQFNDFFTFGPGTKVDIKR
notes: also called LC:Y94F
B6: UGX151 (antibody, human IgG1, kappa, V domains shown)
VH: QVQLVQSGAEVKKPGASVKVSCKASGYTFTFHYMHWVRQAPGQGLEWMGIINPISGSTSNAQKFQGRVTMTRDTSTSTVYMELSSLRSEDTAVYYCARDIVDAFDFWGQGTMVTVSS
VL: AIQLTQSPSSLSASVGDRVTITCRASQGISSALVWYQQKPGKAPKLLIYDASSLESGVPSRFSGSGSGTDFTLTISSLQPEDFATYYCQQFNDYFTFGPGTKVDIKR
notes: also called HC:N31F
B7: UGX130 (antibody, human IgG1, kappa, V domains shown)
VH: QVQLVQSGAEVKKPGASVKVSCKASGYTFTNHYMHWVRQAPGQGLEWMGIINPISGSTSNAQKFQGRVTMTRDTSTSTVYMELSSLRSEDTAVYYCARDIVDAFDFWGQGTMVTVSS
VL: AIQLTQSPSSLSASVGDRVTITCRASQGISSALVWYQQKPGKAPKLLIYDASELESGVPSRFSGSGSGTDFTLTISSLQPEDFATYYCQQFNDYFTFGPGTKVDIKR
notes: also called LC:S53E
B8: UGX160 (antibody, human IgG1, kappa, V domains shown)
VH: QVQLVQSGAEVKKPGASVKVSCKASGYTFTNHYMHWVRQAPGQGLEWMGIINPISGSTFNAQKFQGRVTMTRDTSTSTVYMELSSLRSEDTAVYYCARDIVDAFDFWGQGTMVTVSS
VL: AIQLTQSPSSLSASVGDRVTITCRASQGISSALVWYQQKPGKAPKLLIYDASSLESGVPSRFSGSGSGTDFTLTISSLQPEDFATYYCQQFNDYFTFGPGTKVDIKR
notes: also called UGX066; HC:S59F
B9: UGX137 (antibody, human IgG1, kappa, V domains shown)
VH: QVQLVQSGAEVKKPGASVKVSCKASGYTFTNHYMHWVRQAPGQGLEWMGIINPISGSTSNAQKFQGRVTMTRDTSTSTVYMELSSLRSEDTAVYYCARDIVDAFDFWGQGTMVTVSS
VL: AIQLTQSPSSLSASVGDRVTITCRASQGISSALVWYQQKPGKAPKLLIYDASSLESGVPSRFSGSGSGTDFTLTISSLQPEDFATYYCQQFFDYFTFGPGTKVDIKR
notes: also called UGX035; LC:N92F
B10: UGX161 (antibody, human IgG1, kappa, V domains shown)
VH: QVQLVQSGAEVKKPGASVKVSCKASGYTFTNHYMHWVRQAPGQGLEWMGIINPISGSTINAQKFQGRVTMTRDTSTSTVYMELSSLRSEDTAVYYCARDIVDAFDFWGQGTMVTVSS
VL: AIQLTQSPSSLSASVGDRVTITCRASQGISSALVWYQQKPGKAPKLLIYDASSLESGVPSRFSGSGSGTDFTLTISSLQPEDFATYYCQQFNDYFTFGPGTKVDIKR
notes: also called HC:S59I
B11: UGX140 (antibody, human IgG1, kappa, V domains shown)
VH: QVQLVQSGAEVKKPGASVKVSCKASGYTFTNHYMHWVRQAPGQGLEWMGIINPISGSTSNAQKFQGRVTMTRDTSTSTVYMELSSLRSEDTAVYYCARDIVDAFDFWGQGTMVTVSS
VL: AIQLTQSPSSLSASVGDRVTITCRASQGISSALVWYQQKPGKAPKLLIYDASSLESGVPSRFSGSGSGTDFTLTISSLQPEDFATYYCQQFNFYFTFGPGTKVDIKR
notes: also called UGX039; LC:D93F
B12: UGX159 (antibody, human IgG1, kappa, V domains shown)
VH: QVQLVQSGAEVKKPGASVKVSCKASGYTFTNHYMHWVRQAPGQGLEWMGIINPISGSTENAQKFQGRVTMTRDTSTSTVYMELSSLRSEDTAVYYCARDIVDAFDFWGQGTMVTVSS
VL: AIQLTQSPSSLSASVGDRVTITCRASQGISSALVWYQQKPGKAPKLLIYDASSLESGVPSRFSGSGSGTDFTLTISSLQPEDFATYYCQQFNDYFTFGPGTKVDIKR
notes: also called HC:S59E
B13: UGX133 (antibody, human IgG1, kappa, V domains shown)
VH: QVQLVQSGAEVKKPGASVKVSCKASGYTFTNHYMHWVRQAPGQGLEWMGIINPISGSTSNAQKFQGRVTMTRDTSTSTVYMELSSLRSEDTAVYYCARDIVDAFDFWGQGTMVTVSS
VL: AIQLTQSPSSLSASVGDRVTITCRASQGISSALVWYQQKPGKAPKLLIYDASYLESGVPSRFSGSGSGTDFTLTISSLQPEDFATYYCQQFNDYFTFGPGTKVDIKR
notes: also called UGX022; LC:S53Y
B14: UGX135 (antibody, human IgG1, kappa, V domains shown)
VH: QVQLVQSGAEVKKPGASVKVSCKASGYTFTNHYMHWVRQAPGQGLEWMGIINPISGSTSNAQKFQGRVTMTRDTSTSTVYMELSSLRSEDTAVYYCARDIVDAFDFWGQGTMVTVSS
VL: AIQLTQSPSSLSASVGDRVTITCRASQGISSALVWYQQKPGKAPKLLIYDASSLESGVPSRFSGSGSGTDFTLTISSLQPEDFATYYCQQFDDYFTFGPGTKVDIKR
notes: also called LC:N92D
B15: UGX148 (antibody, human IgG1, kappa, V domains shown)
VH: QVQLVQSGAEVKKPGASVKVSCKASGYTFFNHYMHWVRQAPGQGLEWMGIINPISGSTSNAQKFQGRVTMTRDTSTSTVYMELSSLRSEDTAVYYCARDIVDAFDFWGQGTMVTVSS
VL: AIQLTQSPSSLSASVGDRVTITCRASQGISSALVWYQQKPGKAPKLLIYDASSLESGVPSRFSGSGSGTDFTLTISSLQPEDFATYYCQQFNDYFTFGPGTKVDIKR
notes: also called HC:T30F
B16: UGX127 (antibody, human IgG1, kappa, V domains shown)
VH: QVQLVQSGAEVKKPGASVKVSCKASGYTFTNHYMHWVRQAPGQGLEWMGIINPISGSTSNAQKFQGRVTMTRDTSTSTVYMELSSLRSEDTAVYYCARDIVDAFDFWGQGTMVTVSS
VL: AIQLTQSPSSLSASVGDRVTITCRASQGISSALVWYQQKPGKAPKLLIYDAESLESGVPSRFSGSGSGTDFTLTISSLQPEDFATYYCQQFNDYFTFGPGTKVDIKR
notes: also called UGX017; LC:S52E
B17: UGX131 (antibody, human IgG1, kappa, V domains shown)
VH: QVQLVQSGAEVKKPGASVKVSCKASGYTFTNHYMHWVRQAPGQGLEWMGIINPISGSTSNAQKFQGRVTMTRDTSTSTVYMELSSLRSEDTAVYYCARDIVDAFDFWGQGTMVTVSS
VL: AIQLTQSPSSLSASVGDRVTITCRASQGISSALVWYQQKPGKAPKLLIYDASFLESGVPSRFSGSGSGTDFTLTISSLQPEDFATYYCQQFNDYFTFGPGTKVDIKR
notes: also called LC:S53F

These binders were tested against T1, recombinant human FGF23 (R179Q) (human, UniProt Q9GZV9 25-251) (assay: SPR, antibody captured on hIgG chip, rhFGF23(R179Q) analyte).
T1 construct: also called rhFGF23(R179Q); hFGF23(R179Q)
T1 sequence (looked up): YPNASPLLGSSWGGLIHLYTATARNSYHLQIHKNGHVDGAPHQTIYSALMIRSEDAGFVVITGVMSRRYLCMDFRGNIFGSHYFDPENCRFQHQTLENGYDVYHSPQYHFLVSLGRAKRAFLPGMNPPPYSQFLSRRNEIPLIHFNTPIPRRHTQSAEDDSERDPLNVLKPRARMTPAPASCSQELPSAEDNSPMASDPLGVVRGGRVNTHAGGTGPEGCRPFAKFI
In the case of B1, the Kd is reported as 0.0504 nM and 0.0703 nM, the “Ratio (variant antibody KD/burosumab KD)” value is reported as 0 and the koff is reported as 0.000169 s⁻¹ and 0.000204 s⁻¹. For the same binder, the kon was 3.35e+06 M⁻¹ s⁻¹ and 2.9e+06 M⁻¹ s⁻¹.
With B2 the Kd was 0.0416 nM, the “Ratio (variant antibody KD/burosumab KD)” value was 0 and the “SA (surface activity)” value was 91.2%. The koff was 0.000262 s⁻¹ and the kon was 6.29e+06 M⁻¹ s⁻¹.
B3 was tested, and the Kd was 0.0986 nM, the “Ratio (variant antibody KD/burosumab KD)” value was 0 and the “SA (surface activity)” value was 88.4%. For the same binder, the koff was 0.000472 s⁻¹ and the kon was 4.79e+06 M⁻¹ s⁻¹.
In the case of B4, the Kd is reported as 0.112 nM, the “Ratio (variant antibody KD/burosumab KD)” value is reported as 0 and the “SA (surface activity)” value is reported as 83.7%. The koff was 0.000322 s⁻¹ and the kon was 2.87e+06 M⁻¹ s⁻¹.
For B5, the Kd was 0.0332 nM, the “Ratio (variant antibody KD/burosumab KD)” value was 1 and the “SA (surface activity)” value was 89.9%. The koff was 0.00017 s⁻¹ and the kon was 5.14e+06 M⁻¹ s⁻¹.
With B6 the Kd was 0.0255 nM, the “Ratio (variant antibody KD/burosumab KD)” value was 1 and the “SA (surface activity)” value was 90.3%. It also gave a koff of 0.000212 s⁻¹ and a kon of 8.32e+06 M⁻¹ s⁻¹.
In the case of B7, the Kd is reported as 0.0348 nM, the “Ratio (variant antibody KD/burosumab KD)” value is reported as 1 and the “SA (surface activity)” value is reported as 88.4%. It also gave a koff of 0.000358 s⁻¹ and a kon of 1.03e+07 M⁻¹ s⁻¹.
In the case of B8, the Kd is reported as 0.0142 nM and 0.0147 nM and 0.0146 nM, the “Ratio (variant antibody KD/burosumab KD)” value is reported as 1 and the koff is reported as 8.7e-05 s⁻¹ and 9.61e-05 s⁻¹ and 9.01e-05 s⁻¹. The kon was 6.2e+06 M⁻¹ s⁻¹ (2×) and 6.5e+06 M⁻¹ s⁻¹.
With B9 the Kd was 0.0319 nM, the “Ratio (variant antibody KD/burosumab KD)” value was 1 and the “SA (surface activity)” value was 86.5%. It also gave a koff of 0.000161 s⁻¹ and a kon of 5.04e+06 M⁻¹ s⁻¹.
B10 was tested, and the Kd was 0.061 nM, the “Ratio (variant antibody KD/burosumab KD)” value was 0 and the “SA (surface activity)” value was 84.2%. It also gave a koff of 0.000267 s⁻¹ and a kon of 4.38e+06 M⁻¹ s⁻¹.
In the case of B11, the kon is reported as 2.63e+06 M⁻¹ s⁻¹ and 2.27e+06 M⁻¹ s⁻¹.
For B12, the Kd was 0.0226 nM and 0.0251 nM, the “Ratio (variant antibody KD/burosumab KD)” value was 1 and the koff was 0.000224 s⁻¹ and 0.000222 s⁻¹. For the same binder, the kon was 9.91e+06 M⁻¹ s⁻¹ and 8.83e+06 M⁻¹ s⁻¹.
In the case of B13, the Kd is reported as 0.202 nM, the “Ratio (variant antibody KD/burosumab KD)” value is reported as 0 and the “SA (surface activity)” value is reported as 84.8%. The koff was 0.000733 s⁻¹ and the kon was 3.63e+06 M⁻¹ s⁻¹.
In the case of B14, the Kd is reported as 0.0235 nM, the “Ratio (variant antibody KD/burosumab KD)” value is reported as 1 and the “SA (surface activity)” value is reported as 100%. The koff was 0.000181 s⁻¹ and the kon was 7.71e+06 M⁻¹ s⁻¹.
For B15, the Kd was 0.0272 nM, the “Ratio (variant antibody KD/burosumab KD)” value was 1 and the “SA (surface activity)” value was 91.2%. It also gave a koff of 0.000181 s⁻¹ and a kon of 6.65e+06 M⁻¹ s⁻¹.
With B16 the Kd was 0.0176 nM, the “Ratio (variant antibody KD/burosumab KD)” value was 1 and the “SA (surface activity)” value was 85%. It also gave a koff of 0.000122 s⁻¹ and a kon of 6.93e+06 M⁻¹ s⁻¹.
In the case of B17, the Kd is reported as 0.0393 nM, the “Ratio (variant antibody KD/burosumab KD)” value is reported as 1 and the “SA (surface activity)” value is reported as 95.7%. For the same binder, the koff was 0.000266 s⁻¹ and the kon was 6.78e+06 M⁻¹ s⁻¹.
